The test addresses Smlt3024 (Stenotrophomonas maltophilia K279a) (UniProt B2FJJ5). Briefly: SEC-MALS; Superdex 200 10/300 GL coupled to a Wyatt MALS detector; isolated proteins and their mixture analysed, peaks checked by SDS-PAGE; dn/dc = 0.185 mL/g. Background: Size exclusion chromatography separates by hydrodynamic size, large species first.

In the case of Smlt3025_(86-333) (domain or fragment), the stoichiometry N (Smlt3024:Smlt3025 (86-333) ratio) came out at 1.

Values taken from PMC6759196.
